From article PMC5372792

What was measured:
[1] = biological target: HLA-C07:01 (C1) on 721.221 cells (human | human (endogenous in 721.221))
[2] = biological target: HLA-C01:02 (C1) on 721.221 cells (human | human (endogenous in 721.221))

KIR2DL2 reporter (2DL2–2DS1TM chimeric molecule, KIR2DL2*001) (receptor)
GFP-positive NFAT-GFP reporter cells after overnight coculture with 721.221 transfectants (E:T 1:3) [1]: > 20 % GFP cells | GFP-positive NFAT-GFP reporter cells after overnight coculture with 721.221 transfectants (E:T 1:3) (% GFP-positive cells) [2]: < 5
